US20250320281A1

Assays:
Assay in all cases: cell-based or functional assay
[1] = target: HIV-1 Env of isolate CAAN.A2 (Acute), clade B, on pseudovirus (HIV-1)
[2] = target: HIV-1 Env of isolate MGRM-G-014 (HIV-1)
[3] = target: HIV-1 Env of isolate MGRM-G-016 (HIV-1)
[4] = target: HIV-1 Env of pseudovirus MGRM-AE-006 (clade CRF01_AE) (HIV-1)
[5] = target: HIV-1 Env of pseudovirus MGRM-AE-008 (clade CRF01_AE) (HIV-1)
[6] = target: HIV-1 Env of pseudovirus MGRM-G-011 (HIV-1, clade G isolate MGRM-G-011)
[7] = target: HIV-1 MGRM-C-026 Env (pseudovirus, clade C) (HIV-1)
[8] = target: HIV-1 NL43 Env (pseudovirus, clade B) (HIV-1)
[9] = target: HIV-1 envelope glycoprotein (Env) of isolate 92RW026, clade A (HIV-1)
[10] = target: HIV-1 envelope glycoprotein (Env) of isolate 94KE105, listed under clade A (HIV-1)
[11] = target: HIV-1 Env of isolate 93TH305 (subtype B pseudovirus) (HIV-1)
[12] = target: HIV-1 Env of isolate MGRM-AG-011 (HIV-1)
[13] = target: HIV-1 Env of isolate MGRM-Chronic-B-002 (subtype B pseudovirus) (HIV-1)
[14] = target: HIV-1 Env of isolate MGRM-Chronic-B-008 (subtype B pseudovirus) (HIV-1)
[15] = target: HIV-1 Env of isolate MGRM-Chronic-B-020 (subtype B pseudovirus) (HIV-1)
[16] = target: HIV-1 Env of isolate MGRM-D-024 (pseudovirus) (HIV-1)
[17] = target: HIV-1 Env of isolate MGRM-D-028 (pseudovirus) (HIV-1)
[18] = target: HIV-1 Env of isolate MGRM-F1-016 (HIV-1)
[19] = target: HIV-1 Env of isolate MGRM-F1-020 (HIV-1)
[20] = target: HIV-1 Env of isolate MGRM-F1-022 (HIV-1)
[21] = target: HIV-1 Env of isolate NL43 (subtype B pseudovirus) (HIV-1)
[22] = target: HIV-1 92BR020 Env (pseudovirus) (HIV-1)
[23] = target: HIV-1 93UG077 Env (pseudovirus) (HIV-1)
[24] = target: HIV-1 APV17 Env (pseudovirus) (HIV-1)
[25] = target: HIV-1 MGRM-D-001 Env (pseudovirus) (HIV-1)
[26] = target: HIV-1 Env of isolate 92UG005 (HIV-1)
[27] = target: HIV-1 Env of isolate CAAN.A2 (subtype B) (HIV-1)
[28] = target: HIV-1 Env of isolate MGRM-A-004 (HIV-1)
[29] = target: HIV-1 Env of isolate MGRM-A-008 (subtype A) (HIV-1)
[30] = target: HIV-1 Env of isolate MGRM-AG-011 (subtype AG) (HIV-1)
[31] = target: HIV-1 Env of isolate MGRM-AG-013 (subtype AG) (HIV-1)
[32] = target: HIV-1 Env of isolate MGRM-Chronic-B-008 (subtype B) (HIV-1)
[33] = target: HIV-1 Env of isolate TRJ04551.58 (subtype B) (HIV-1)
[34] = target: HIV-1 envelope glycoprotein (Env) of isolate MGRM-C-007 (HIV-1)
[35] = target: HIV-1 envelope glycoprotein (Env) of isolate MGRM-C-012 (HIV-1)
[36] = target: HIV-1 envelope glycoprotein (Env) of isolate MGRM-C-024 (HIV-1)
[37] = target: HIV-1 envelope glycoprotein (Env) of isolate MGRM-C-028 (HIV-1)

Sequence of 4995_E20 (PGT-142) (antibody) (VH): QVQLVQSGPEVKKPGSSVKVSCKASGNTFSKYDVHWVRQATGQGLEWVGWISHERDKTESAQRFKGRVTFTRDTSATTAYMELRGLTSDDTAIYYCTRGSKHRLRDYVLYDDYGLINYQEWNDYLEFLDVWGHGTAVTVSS
Sequence of 4995_E20 (PGT-142) (antibody) (VL): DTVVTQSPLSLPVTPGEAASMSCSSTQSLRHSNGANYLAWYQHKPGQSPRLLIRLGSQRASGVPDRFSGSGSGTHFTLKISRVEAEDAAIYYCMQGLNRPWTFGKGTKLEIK
Sequence of 4993_K13 (PGT-141) (antibody) (VH): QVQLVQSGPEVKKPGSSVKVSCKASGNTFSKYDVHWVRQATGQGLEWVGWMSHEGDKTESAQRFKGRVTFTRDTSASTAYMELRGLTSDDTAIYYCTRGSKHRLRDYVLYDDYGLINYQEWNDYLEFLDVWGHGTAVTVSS
Sequence of 4970_K22 (PGT-144) (antibody) (VH): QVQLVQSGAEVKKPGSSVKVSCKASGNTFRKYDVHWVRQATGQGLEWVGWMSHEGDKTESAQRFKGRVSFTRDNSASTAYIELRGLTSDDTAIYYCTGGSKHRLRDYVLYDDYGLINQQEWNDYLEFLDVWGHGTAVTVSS
Sequence of 4970_K22 (PGT-144) (antibody) (VL): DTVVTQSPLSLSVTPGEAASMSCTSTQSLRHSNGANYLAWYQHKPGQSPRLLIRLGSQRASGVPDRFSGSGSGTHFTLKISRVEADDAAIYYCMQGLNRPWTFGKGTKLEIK
Sequence of 4980_N08 (PGT-143) (antibody) (VH): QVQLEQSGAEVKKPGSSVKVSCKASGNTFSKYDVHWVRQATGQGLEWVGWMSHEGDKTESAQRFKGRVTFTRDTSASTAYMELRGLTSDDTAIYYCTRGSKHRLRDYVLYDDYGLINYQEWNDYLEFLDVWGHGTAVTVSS
Sequence of 4980_N08 (PGT-143) (antibody) (VL): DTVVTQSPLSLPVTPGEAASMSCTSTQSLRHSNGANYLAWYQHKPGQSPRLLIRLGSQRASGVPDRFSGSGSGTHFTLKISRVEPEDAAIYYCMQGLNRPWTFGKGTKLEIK

Question: Which results are given for 1496_C09 (PG9) (TCN-109) (antibody)?
Answer: IC50 (µg/ml), pseudovirus neutralization [1]: 5.67 µg/mL; IC50 (µg/mL), pseudovirus neutralization [2]: 16.5 µg/mL; IC50 (µg/mL), pseudovirus neutralization [3]: 1.36 µg/mL; IC50 [4]: 0.05 µg/mL; IC50 [5]: 10.6 µg/mL; IC50 (µg/ml), pseudovirus neutralization [6]: 0.19 µg/mL; IC50 neutralization [7]: 0.113 µg/mL; IC50 neutralization [8]: 0.687 µg/mL; IC50 (µg/ml), pseudovirus neutralization [9]: 0.27 µg/mL; IC50 (µg/ml), pseudovirus neutralization [10]: 29.6 µg/mL

Question: For 4838_L06 (PGT-121) (antibody), which IC50 (µg/mL), pseudovirus neutralization [11] is on record?
Answer: 0.007 µg/mL

Question: And the IC50 [12]?
Answer: > 50 µg/mL

Question: What about the IC50 (µg/mL), pseudovirus neutralization [13] of the same substance?
Answer: 0.386 µg/mL

Question: And the IC50 (µg/mL), pseudovirus neutralization [14]?
Answer: 0.007 µg/mL

Question: What about the IC50 (µg/mL), pseudovirus neutralization [15] of the same substance?
Answer: 0.004 µg/mL

Question: And the IC50, pseudovirus neutralization [16]?
Answer: 0.038 µg/mL

Question: And the IC50, pseudovirus neutralization [17]?
Answer: 0.009 µg/mL

Question: And the IC50 (µg/mL), pseudovirus neutralization [18]?
Answer: 0.931 µg/mL

Question: And the IC50 (µg/mL), pseudovirus neutralization [19]?
Answer: 0.167 µg/mL

Question: What about the IC50 (µg/mL), pseudovirus neutralization [20] of the same substance?
Answer: 0.104 µg/mL

Question: And the IC50 (µg/mL), pseudovirus neutralization [21]?
Answer: > 50 µg/mL

Question: What about the IC50 neutralization [8] of the same substance?
Answer: > 10 µg/mL

Question: Which results are given for 4970_K22 (PGT-144) (antibody)?
Answer: neutralization IC50 (pseudovirus) [22]: > 10 µg/mL; IC50 (neutralizing activity, pseudovirus) [23]: > 10 µg/mL; IC50 (neutralizing activity, pseudovirus) [24]: 5.12 µg/mL; IC50 (µg/mL), pseudovirus neutralization [2]: 0.562 µg/mL; IC50 (µg/mL), pseudovirus neutralization [3]: > 50 µg/mL; IC50 (neutralizing activity, pseudovirus) [25]: > 10 µg/mL

Question: Which neutralization IC50 (pseudovirus) [22] does the source give for 4980_N08 (PGT-143) (antibody) here?
Answer: > 10 µg/mL

Question: And the IC50 (neutralizing activity, pseudovirus) [23]?
Answer: > 10 µg/mL

Question: What about the IC50 (neutralizing activity, pseudovirus) [24] of the same substance?
Answer: 0.618 µg/mL

Question: What about the IC50 (µg/mL), pseudovirus neutralization [2] of the same substance?
Answer: 0.107 µg/mL

Question: And the IC50 (µg/mL), pseudovirus neutralization [3]?
Answer: 7.6 µg/mL

Question: And the IC50 (neutralizing activity, pseudovirus) [25]?
Answer: > 10 µg/mL

Question: 4993_K13 (PGT-141) (antibody) was tested. Which neutralization IC50 (pseudovirus) [22] did it give?
Answer: > 10 µg/mL

Question: What about the IC50 (neutralizing activity, pseudovirus) [23] of the same substance?
Answer: > 10 µg/mL

Question: What about the IC50 (neutralizing activity, pseudovirus) [24] of the same substance?
Answer: 0.616 µg/mL

Question: And the IC50 (µg/mL), pseudovirus neutralization [26]?
Answer: > 50 µg/mL

Question: And the IC50 (µg/mL), pseudovirus neutralization [2]?
Answer: 0.222 µg/mL

Question: And the IC50 (µg/mL), pseudovirus neutralization [3]?
Answer: 4.69 µg/mL

Question: What about the IC50 (neutralizing activity, pseudovirus) [25] of the same substance?
Answer: > 10 µg/mL

Question: For 4995_E20 (PGT-142) (antibody), which neutralization IC50 (pseudovirus) [22] is on record?
Answer: > 10 µg/mL

Question: What about the IC50 (neutralizing activity, pseudovirus) [23] of the same substance?
Answer: > 10 µg/mL

Question: What about the IC50 (neutralizing activity, pseudovirus) [24] of the same substance?
Answer: 0.393 µg/mL

Question: What about the IC50 (µg/mL), pseudovirus neutralization [2] of the same substance?
Answer: 0.076 µg/mL

Question: And the IC50 (µg/mL), pseudovirus neutralization [3]?
Answer: 8.17 µg/mL

Question: What about the IC50 (neutralizing activity, pseudovirus) [25] of the same substance?
Answer: > 10 µg/mL

Question: 5114_A19 (PGT-128) (antibody) was tested. Which IC50 (µg/mL), pseudovirus neutralization [26] did it give?
Answer: 0.018 µg/mL

Question: And the IC50 neutralization [27]?
Answer: 1.48 µg/mL

Question: And the IC50 [28]?
Answer: > 50 µg/mL

Question: What about the IC50 (µg/mL), pseudovirus neutralization [29] of the same substance?
Answer: > 50 µg/mL

Question: What about the IC50 (µg/mL), pseudovirus neutralization [30] of the same substance?
Answer: 3.93 µg/mL

Question: And the IC50 (µg/mL), pseudovirus neutralization [31]?
Answer: 0.004 µg/mL

Question: And the IC50 neutralization [32]?
Answer: 0.143 µg/mL

Question: What about the IC50 neutralization [33] of the same substance?
Answer: 0.019 µg/mL

Question: And the IC50 (µg/mL), pseudovirus neutralization [34]?
Answer: 0.111 µg/mL

Question: And the IC50 (µg/mL), pseudovirus neutralization [35]?
Answer: 0.058 µg/mL

Question: What about the IC50 (µg/mL), pseudovirus neutralization [36] of the same substance?
Answer: > 50 µg/mL

Question: And the IC50 (µg/mL), pseudovirus neutralization [37]?
Answer: 14.4 µg/mL
